The assay concerns the target human CD47/IAP receptor on HUCB-EPC (human) (UniProt Q08722). In words: cell-based or functional assay.

B1: mouse monoclonal anti-human CD47 IgG1 (clone B6H12) (antibody, from another filing, V domains shown)
VH: EVQLVESGGDLVKPGGSLKLSCAASGFTFSGYGMSWVRQTPDKRLEWVATITSGGTYTYYPDSVKGRFTISRDNAKNTLYLQIDSLKSEDTAIYFCARSLAGNAMDYWGQGTSVTVSS
VL: DIVMTQSPATLSVTPGDRVSLSCRASQTISDYLHWYQQKSHESPRLLIKFASQSISGIPSRFSGSGSGSDFTLSINSVEPEDVGVYYCQNGHGFPRTFGGGTKLEIK
Regarding B1, the HUCB-EPC adhesion onto gelatin-vitronectin after pre-treatment with 40 µg/ml, compared with BSA came out at 14.6% and the HUCB-EPC adhesion onto gelatin-vitronectin after pre-treatment with 40 µg/ml, compared with control mouse IgG1 is 16.6%.
